From publication PMC3025530

Experiments:
[1] = biological target: ADAM12-S (shorter secreted form of ADAM12), full-length (human) (UniProt O43184); assay: enzyme inhibition kinetics
[2] = biological target: ADAM12-Cat (truncated ADAM12 protein consisting of only the pro and catalytic domains) (human) (UniProt O43184); assay: enzyme inhibition kinetics

Substance | Ki [1] [nM] | Ki [2] [nM]
N-TIMP-1[TIMP-2-ABloop] (domain or fragment) | > 500 | 247
N-TIMP-1[TIMP-3-ABloop] (domain or fragment) | 66 | 
N-TIMP-1[V4A] (domain or fragment) | 190 | 
N-TIMP-1[V4S] (domain or fragment) | 122 | 
N-TIMP-2 (N-terminal domain of TIMP-2), wild-type (domain or fragment) | 69.7 | 5.5
N-TIMP-2^TACE (S2T/A70S/V71L/TIMP-3-ABloop) (domain or fragment) |  | 0.65

Next, values leading:

Ki [1] [nM] | Ki [2] [nM] | Substance
21.7 | 11.2 | N-TIMP-1[T98L] (domain or fragment)
16.4 | 1.9 | N-TIMP-1^TACE (V4S/V69L/T98L/TIMP-3-ABloop) (domain or fragment)
28.1 | 2.5 | N-TIMP-2-ΔABloop (N-TIMP-2 with the AB-loop deleted) (domain or fragment)
18 |  | N-TIMP-2^TACE[F34G] (domain or fragment)
22 | 4.1 | N-TIMP-2^TACE[L100E] (domain or fragment)
